{"source": "paper PMC9388496", "key": {"[1]": {"biological_target": "VEGF-165 (VEGF-A165, Sino Biological) (UniProt P15692)", "sequence (P15692 whole entry)": "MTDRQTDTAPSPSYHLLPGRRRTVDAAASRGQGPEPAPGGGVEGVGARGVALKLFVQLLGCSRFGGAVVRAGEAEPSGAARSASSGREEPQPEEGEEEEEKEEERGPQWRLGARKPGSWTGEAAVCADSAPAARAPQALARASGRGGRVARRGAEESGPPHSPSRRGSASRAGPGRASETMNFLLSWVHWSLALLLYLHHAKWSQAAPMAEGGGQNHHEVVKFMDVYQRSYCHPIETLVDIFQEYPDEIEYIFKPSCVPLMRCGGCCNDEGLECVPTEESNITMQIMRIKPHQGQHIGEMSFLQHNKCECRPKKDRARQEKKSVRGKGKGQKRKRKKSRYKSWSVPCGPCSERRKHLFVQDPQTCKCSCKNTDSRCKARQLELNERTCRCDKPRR", "experiment": "SPR (Biacore T200)", "conditions": "pH 5.5 vs 7.4, 0.15 M NaCl, 67 mM phosphate, the same buffer adjusted to pH 7.4 with 1 M NaOH"}, "[2]": {"biological_target": "Truncated monomeric His-tagged FcRn (UniProt P55899)"}, "[3]": {"biological_target": "FcRn coupled to the resin of the affinity chromatography column (UniProt P55899)", "experiment": "analytical FcRn affinity chromatography; protein (1 mg/ml, alone or preincubated with cognate Ag) injected on a column with FcRn-coupled resin at pH 5.5 (20 mM MES, 140 mM NaCl), eluted by a linear pH gradient to pH 8.8 (20 mM Tris-HCl, 140 mM NaCl) over 110 min"}, "[4]": {"biological_target": "IgG1-derived Fc fragment (human)", "experiment": "SPR; Biacore T200; IgG1, Fc or ABTs immobilised (~400 RU) on CM5 by amine coupling; monomeric His-tagged FcRn (2000-1.95 nM) injected at pH 5.5 (67 mM phosphate, 0.15 M NaCl, 0.005% Tween20), 50 μl/min; 1:1 Langmuir binding model"}, "[5]": {"biological_target": "adalimumab (Humira) (human)", "experiment": "SPR; Biacore T200; IgG1, Fc or ABTs immobilised (~400 RU) on CM5 by amine coupling; monomeric His-tagged FcRn (2000-1.95 nM) injected at pH 5.5 (67 mM phosphate, 0.15 M NaCl, 0.005% Tween20), 50 μl/min; 1:1 Langmuir binding model"}, "aflibercept (Eylea)": {"biological_target": "aflibercept (Eylea) (UniProt P17948)", "experiment": "SPR; Biacore T200; IgG1, Fc or ABTs immobilised (~400 RU) on CM5 by amine coupling; monomeric His-tagged FcRn (2000-1.95 nM) injected at pH 5.5 (67 mM phosphate, 0.15 M NaCl, 0.005% Tween20), 50 μl/min; 1:1 Langmuir binding model"}, "[6]": {"biological_target": "anti-NIP IgG1 (human | mouse)", "experiment": "SPR; Biacore T200; IgG1, Fc or ABTs immobilised (~400 RU) on CM5 by amine coupling; monomeric His-tagged FcRn (2000-1.95 nM) injected at pH 5.5 (67 mM phosphate, 0.15 M NaCl, 0.005% Tween20), 50 μl/min; 1:1 Langmuir binding model"}, "[7]": {"biological_target": "bevacizumab (Avastin) (human)", "experiment": "SPR; Biacore T200; IgG1, Fc or ABTs immobilised (~400 RU) on CM5 by amine coupling; monomeric His-tagged FcRn (2000-1.95 nM) injected at pH 5.5 (67 mM phosphate, 0.15 M NaCl, 0.005% Tween20), 50 μl/min; 1:1 Langmuir binding model"}, "etanercept (Enbrel)": {"biological_target": "etanercept (Enbrel) (UniProt P20333)", "experiment": "SPR; Biacore T200; IgG1, Fc or ABTs immobilised (~400 RU) on CM5 by amine coupling; monomeric His-tagged FcRn (2000-1.95 nM) injected at pH 5.5 (67 mM phosphate, 0.15 M NaCl, 0.005% Tween20), 50 μl/min; 1:1 Langmuir binding model"}, "[8]": {"biological_target": "infliximab (Remicade) (human)", "experiment": "SPR; Biacore T200; IgG1, Fc or ABTs immobilised (~400 RU) on CM5 by amine coupling; monomeric His-tagged FcRn (2000-1.95 nM) injected at pH 5.5 (67 mM phosphate, 0.15 M NaCl, 0.005% Tween20), 50 μl/min; 1:1 Langmuir binding model"}, "[9]": {"biological_target": "Truncated monomeric His-tagged FcRn (UniProt P55899)", "remark": "listed apart in the source"}}, "data": [{"substance": "Aflibercept (Eylea), VEGFR1 D2-VEGFR2 D3-IgG1 Fc fusion", "values": [{"measurement": "on-rate (sensorgram comparison), fold change pH 5.5 over pH 7.4", "setting": "[1]", "result": "acidic pH enhanced the on-rate more than 5-fold"}]}, {"substance": "Bevacizumab (Avastin)", "values": [{"measurement": "on-rate (sensorgram comparison), fold change pH 5.5 over pH 7.4", "setting": "[1]", "result": "acidic pH enhanced the on-rate more than 5-fold"}]}, {"substance": "IgG1-derived Fc fragment (domain or fragment)", "values": [{"measurement": "reduction of the recycling of 400 nM anti-NIP IgG1 (m4) by titrated Fc fragment (6400-1 nM) in HERA, HMEC-1-FcRn cells preloaded with IVIg, uptake at pH 6.0", "setting": "[2]", "result": 32.9, "unit": "nM"}, {"measurement": "elution peak pH", "setting": "[3]", "result": 7.13, "unit": "pH"}]}, {"substance": "Truncated monomeric His-tagged FcRn (from UniProt P55899 24-365) (receptor)", "values": [{"measurement": "Kd", "setting": "[4]", "result": 230, "unit": "nM"}, {"measurement": "Kd", "setting": "[5]", "result": 430, "unit": "nM"}, {"measurement": "koff", "setting": "[5]", "result": 0.001, "unit": "s⁻¹"}, {"measurement": "kon", "setting": "[5]", "result": 42000, "unit": "M⁻¹ s⁻¹"}, {"measurement": "Kd", "setting": "aflibercept (Eylea)", "result": 350, "unit": "nM"}, {"measurement": "koff", "setting": "aflibercept (Eylea)", "result": 0.001, "unit": "s⁻¹"}, {"measurement": "kon", "setting": "aflibercept (Eylea)", "result": 30000, "unit": "M⁻¹ s⁻¹"}, {"measurement": "Kd", "setting": "[6]", "result": 330, "unit": "nM"}, {"measurement": "Kd", "setting": "[7]", "result": 380, "unit": "nM"}, {"measurement": "koff", "setting": "[7]", "result": 0.001, "unit": "s⁻¹"}, {"measurement": "kon", "setting": "[7]", "result": 32000, "unit": "M⁻¹ s⁻¹"}, {"measurement": "Kd", "setting": "etanercept (Enbrel)", "result": 380, "unit": "nM"}, {"measurement": "koff", "setting": "etanercept (Enbrel)", "result": 0.001, "unit": "s⁻¹"}, {"measurement": "kon", "setting": "etanercept (Enbrel)", "result": 31000, "unit": "M⁻¹ s⁻¹"}, {"measurement": "Kd", "setting": "[8]", "result": 310, "unit": "nM"}, {"measurement": "koff", "setting": "[8]", "result": 0.002, "unit": "s⁻¹"}, {"measurement": "kon", "setting": "[8]", "result": 35000, "unit": "M⁻¹ s⁻¹"}]}, {"substance": "adalimumab (Humira) (antibody)", "values": [{"measurement": "elution peak pH", "setting": "[3]", "result": 7.21, "unit": "pH"}]}, {"substance": "aflibercept (Eylea) (from UniProt P17948 129-229; P35968 1-764) (Fc fusion)", "values": [{"measurement": "elution peak pH", "setting": "[3]", "result": 7.01, "unit": "pH"}]}, {"substance": "anti-NIP IgG1 Fc-engineered variant M252Y/S254T/T256E/H433K/N434F (antibody)", "values": [{"measurement": "cellular uptake in HERA (HMEC-1-FcRn cells) after 2 h incubation, relative to non-engineered anti-NIP IgG1", "setting": "[9]", "result": 15, "unit": "fold"}]}, {"substance": "bevacizumab (Avastin) (antibody)", "values": [{"measurement": "elution peak pH", "setting": "[3]", "result": 7.2, "unit": "pH"}]}, {"substance": "etanercept (Enbrel) (from UniProt P20333 23-257) (Fc fusion)", "values": [{"measurement": "elution peak pH", "setting": "[3]", "result": 6.88, "unit": "pH"}]}, {"substance": "infliximab (Remicade) (antibody)", "values": [{"measurement": "elution peak pH", "setting": "[3]", "result": 7.15, "unit": "pH"}]}]}
